# In publication PMC9555685, “A single transcription factor facilitates an insect host combating Bacillus thuringiensis infection while maintaining fitness”:
# Tests used:
# Settings in all cases: protein: recombinant; tags: N-terminal His; label: 5'-biotin
# [1] = target: T1, FTZ-F1 T288D(P) (phosphomimic) (Plutella xylostella, UniProt A0ABQ7R810 1-557, T288D); assay: EMSA; 20 fmol probe; EMSA: 25 °C, 30 min, 20 fmol biotin probe, LightShift Chemiluminescent EMSA Kit; buffer, salt and pH not stated
# T1 sequence (A0ABQ7R810 entry or part of it T288D | T288D T288D): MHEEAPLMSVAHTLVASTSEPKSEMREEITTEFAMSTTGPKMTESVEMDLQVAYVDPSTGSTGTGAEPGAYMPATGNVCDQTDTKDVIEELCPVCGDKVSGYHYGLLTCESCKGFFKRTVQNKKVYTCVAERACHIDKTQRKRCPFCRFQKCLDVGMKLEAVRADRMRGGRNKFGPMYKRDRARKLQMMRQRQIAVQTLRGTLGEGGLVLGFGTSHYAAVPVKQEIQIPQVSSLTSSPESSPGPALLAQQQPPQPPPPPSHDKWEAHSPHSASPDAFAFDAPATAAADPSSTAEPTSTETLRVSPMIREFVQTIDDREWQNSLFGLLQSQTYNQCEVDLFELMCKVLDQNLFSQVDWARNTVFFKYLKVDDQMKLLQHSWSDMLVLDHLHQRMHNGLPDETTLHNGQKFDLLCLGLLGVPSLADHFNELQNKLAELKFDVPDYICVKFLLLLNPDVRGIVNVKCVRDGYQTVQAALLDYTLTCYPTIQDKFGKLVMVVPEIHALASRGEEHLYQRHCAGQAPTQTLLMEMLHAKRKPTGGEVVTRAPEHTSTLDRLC
# [2] = target: T2, FTZ-F1 T288A(-P) (non-phosphorylated form) (Plutella xylostella, UniProt A0ABQ7R810 1-557, T288A); assay: EMSA; 20 fmol probe; cold competitor 100 and 500 fmol; EMSA: 25 °C, 30 min, 20 fmol biotin probe, LightShift Chemiluminescent EMSA Kit; buffer, salt and pH not stated
# T2 sequence (A0ABQ7R810 entry or part of it T288A | T288A T288A): as the sequence (A0ABQ7R810 entry or part of it T288D | T288D T288D) above, with D288A counted along it
# [3] = target: T2, FTZ-F1 T288A(-P) (non-phosphorylated …); assay: EMSA; 20 fmol probe; EMSA: 25 °C, 30 min, 20 fmol biotin probe, LightShift Chemiluminescent EMSA Kit; buffer, salt and pH not stated
# [4] = target: T1, FTZ-F1 T288D(P) (phosphomimic); assay: EMSA; 20 fmol probe; cold competitor 100 and 500 fmol; EMSA: 25 °C, 30 min, 20 fmol biotin probe, LightShift Chemiluminescent EMSA Kit; buffer, salt and pH not stated
Binder,binding result [1],binding result [2],binding result [3],binding result [4]
FBS (ABCC2 promoter) (dsDNA) DNA 1: CTGTCCTGTAA DNA 2: TTACAGGACAG,no binding,binds,,
FBSP (ABCC1 promoter) (dsDNA) DNA 1: GTACAGTCAC DNA 2: GTGACTGTAC,,,no binding,binds
